Reference: IntAct's records for PubMed 21960005

B1: Ran-binding protein 3 (Homo sapiens), Q9H6Z4 (parent)
chain: MADLANEEKPAIAPPVFVFQKDKGQKSPAEQKNLSDSGEEPRGEAEAPHHGTGHPESAGEHALEPPAPAGASASTPPPPAPEAQLPPFPRELAGRSAGGSSPEGGEDSDREDGNYCPPVKRERTSSLTQFPPSQSEERSSGFRLKPPTLIHGQAPSAGLPSQKPKEQQRSVLRPAVLQAPQPKALSQTVPSSGTNGVSLPADCTGAVPAASPDTAAWRSPSEAADEVCALEEKEPQKNESSNASEEEACEKKDPATQQAFVFGQNLRDRVKLINESVDEADMENAGHPSADTPTATNYFLQYISSSLENSTNSADASSNKFVFGQNMSERVLSPPKLNEVSSDANRENAAAESGSESSSQEATPEKESLAESAAAYTKATARKCLLEKVEVITGEEAESNVLQMQCKLFVFDKTSQSWVERGRGLLRLNDMASTDDGTLQSRLVMRTQGSLRLILNTKLWAQMQIDKASEKSIRITAMDTEDQGVKVFLISASSKDTGQLYAALHHRILALRSRVEQEQEAKMPAPEPGAAPSNEEDDSDDDDVLAPSGATAAGAGDEGDGQTTGST
B2: Ran-binding protein 3 (Homo sapiens), Q9H6Z4 (parent)
chain: B1 chain
partner: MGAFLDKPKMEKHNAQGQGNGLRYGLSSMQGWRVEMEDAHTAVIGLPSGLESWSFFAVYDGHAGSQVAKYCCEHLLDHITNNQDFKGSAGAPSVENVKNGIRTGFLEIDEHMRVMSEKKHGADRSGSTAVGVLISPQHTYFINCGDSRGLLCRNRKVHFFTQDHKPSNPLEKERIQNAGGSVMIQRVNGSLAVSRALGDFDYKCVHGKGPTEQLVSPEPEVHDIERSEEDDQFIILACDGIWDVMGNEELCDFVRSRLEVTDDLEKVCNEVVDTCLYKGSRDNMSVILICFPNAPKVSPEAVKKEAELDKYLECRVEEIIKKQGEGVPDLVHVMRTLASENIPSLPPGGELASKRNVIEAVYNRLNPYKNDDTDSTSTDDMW

Variants of: B1
Details: with smad2_human SMAD2, Q15796
Sequence of smad2_human SMAD2, Q15796 (Q15796 whole entry): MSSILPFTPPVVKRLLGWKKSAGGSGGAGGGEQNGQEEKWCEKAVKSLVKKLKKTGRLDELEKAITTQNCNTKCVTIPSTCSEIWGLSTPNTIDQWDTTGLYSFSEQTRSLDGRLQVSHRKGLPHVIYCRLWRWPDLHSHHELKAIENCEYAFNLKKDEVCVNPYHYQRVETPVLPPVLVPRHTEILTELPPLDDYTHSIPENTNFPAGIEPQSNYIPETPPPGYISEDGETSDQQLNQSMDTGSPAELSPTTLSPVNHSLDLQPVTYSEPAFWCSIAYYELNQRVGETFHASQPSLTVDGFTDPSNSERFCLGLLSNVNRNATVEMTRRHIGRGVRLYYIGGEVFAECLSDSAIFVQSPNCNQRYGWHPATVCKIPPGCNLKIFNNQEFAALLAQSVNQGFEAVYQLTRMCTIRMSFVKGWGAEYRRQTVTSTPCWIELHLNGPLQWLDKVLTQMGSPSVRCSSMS

effect of a mutation on the interaction | Variant
decreasing interaction | S57D

Variants of: B2
Details: with ppm1a_human PPM1A

effect of a mutation on the interaction | Variant
increasing interaction | S57D

Variants of: B2
Details: with ppm1a_human PPM1A
Remark: another data set of the same source

effect of a mutation on the interaction | Variant
decreasing interaction | S57A
